Source: patent publication US6566077B1, “Peptide useful as a ligand” (Tecnogen S.C.p.A., priority 1995, dated 2003)
No end group written: not given here.

Key:
rabbit immunoglobulins = experiment: Affinity chromatography of crude rabbit serum on a column of immobilized peptide, with polyacrylamide gel electrophoresis of the fractions; type: binding
Method: The peptide of formula (H-L-Arg-L-Thr-L-Tyr-)4-Lys2-Lys-Gly-OH (5 mg) was dissolved in 5 ml of 0.1 M sodium bicarbonate buffer pH 9.0 and then added to 1.2 g of activated resin CH-Sepharose 4B (Pharmacia, Uppsala, Sweden Cat. No. 17-0490-01), which is a chromatographic support for affinity chromatography preactivated for the direct coupling to peptides and proteins. The suspension was shaken for 24 h and the coupling level was monitored by taking aliquots of the reaction mixture at different times and subsequent RP-HPLC analysis.
Approximately 90% of initial peptide resulted covalently linked to the resin after 24 h. The derivatized resin was washed with 50 ml of 1 M TRIS pH 9.0 and then packed on a glass column (100×6.6 mm I.D.).
(§1) In order to purify immunoglobulins, the column was equilibrated with a 25 mM BIS-TRIS buffer (SIGMA, Cat. B9754) pH 6.5, at a flow rate of 1 ml/min, while the eluent was monitored at 280 nm. One milliliter of crude rabbit serum (SIGMA Cat. No. R 9133) was then loaded on the column, and after elution of non retained material at the column void volume, the eluent was changed to 0.1 M acetic acid.
(§2) Material desorbed by such a treatment was collected and analyzed by electrophoretic analysis on a polyacrylamide gel.
(§3) The purification of rabbit immunoglobulins from crude serum by affinity chromatography is shown in FIG. 1 while the electrophoretic analysis of the collected fractions is shown in FIG. 2. […] Furthermore, in FIG. 2 are also shown the electrophoretic analyses corresponding to several rabbit immunoglobulins purifications obtained after equilibration of the affinity column with different buffers, namely 0.1 M ammonium acetate pH 5.7 (A), 0.1 M sodium phosphate pH 7.0 (B), or 0.1 M sodium phosphate pH 8.5 (C).

albumin = biological target: T1, albumin (Oryctolagus cuniculus, UniProt P49065); experiment: Affinity chromatography of crude rabbit serum on a column of immobilized ligand: retention or carry-over of albumin; type: binding
T1 construct: tissue SIGMA R 9133; host or cells: crude rabbit serum
Method: as §1, §2, §3
Indeed similar results were attained with other supports such as Protein-Pak (Waters, USA), Eupergit C30N (Sigma, USA) and Affi-Gel (Bio-Rad, USA).

[1] = biological target: albumin of crude rabbit serum (rabbit, UniProt P49065 25-608); experiment: affinity chromatography of crude rabbit serum on the peptide immobilised on CH-Sepharose 4B; SDS-PAGE of fractions
Sequence of albumin of crude rabbit serum (P49065 25-608 limits assumed): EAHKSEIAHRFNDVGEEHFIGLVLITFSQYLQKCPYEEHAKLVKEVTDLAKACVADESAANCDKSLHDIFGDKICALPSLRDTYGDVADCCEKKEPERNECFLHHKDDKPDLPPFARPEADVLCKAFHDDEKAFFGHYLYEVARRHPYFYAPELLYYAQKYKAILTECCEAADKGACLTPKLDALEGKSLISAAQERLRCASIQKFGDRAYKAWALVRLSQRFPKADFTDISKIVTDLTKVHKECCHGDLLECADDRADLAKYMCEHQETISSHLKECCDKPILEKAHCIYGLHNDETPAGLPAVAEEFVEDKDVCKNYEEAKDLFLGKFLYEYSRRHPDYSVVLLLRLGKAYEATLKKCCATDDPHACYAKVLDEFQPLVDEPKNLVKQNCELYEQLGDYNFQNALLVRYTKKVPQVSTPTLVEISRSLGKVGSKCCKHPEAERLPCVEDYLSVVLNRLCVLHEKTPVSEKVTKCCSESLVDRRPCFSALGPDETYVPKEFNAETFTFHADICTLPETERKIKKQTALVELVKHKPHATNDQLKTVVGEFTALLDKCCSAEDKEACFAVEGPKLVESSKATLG

T1 sequence (P49065 25-608): as the sequence (P49065 25-608 limits assumed) above

Q: “(H-L-Arg-L-Thr-L-Tyr-)4-Lys2-Lys-Gly-OH (peptide H-Arg-Thr-Tyr; chain KKKG-OH; also: branched tetramer: four RTY arms on the alpha and epsilon amines of two Lys, which are attached to the alpha and epsilon amines of a central Lys followed by Gly)” was tested. Which “purification of immunoglobulins from contaminants after equilibration with different buffers” value (rabbit immunoglobulins; 0.1 M ammonium acetate pH 5.7, 0.1 M sodium phosphate pH 7.0 or pH 8.5, desorbed with 0.1 M acetic acid) did it give?
A: Its value is “optimal purification of immunoglobulins from contaminants was achieved”.

Q: And the “retention of the immunoglobulin fraction from crude serum by the column” value (rabbit immunoglobulins; 1 ml crude rabbit serum, 25 mM BIS-TRIS pH 6.5, elution with 0.1 M acetic acid, peptide on CH-Sepharose 4B)?
A: Its value is “able to retain the immunoglobulin fraction from the crude serum”.

Q: And the “purification capability of the column” value (rabbit immunoglobulins; immunoglobulins purified from 0.5 ml, 1 ml and 1.5 ml of serum)?
A: The value was “remarkable purification capability”.

Q: And the “retention of albumin by the column” value (albumin; 1 ml crude rabbit serum, 25 mM BIS-TRIS pH 6.5, peptide on CH-Sepharose 4B)?
A: Its value is “albumin was not retained”.

Q: What about the “column selectivity compared with immobilized protein A columns” value (albumin; same serum, columns of the same dimensions) of the same molecule?
A: The value was “superior to that of columns with immobilized protein A”.

Q: Which “albumin in the purified fractions” value (albumin; same serum, immobilized protein A column of the same dimensions) does the source give for “protein A: protein obtained from Staphylococcus aureus, binds specifically to the constant portion of immunoglobulins; comparator affinity ligand [reference compound]” here?
A: Its value is “always comprising traces of albumin”.

B1: (H-L-Arg-L-Thr-L-Tyr-)4-Lys2-Lys-Gly-OH (peptide)
peptide: H-Arg-Thr-Tyr
chain: KKKG-OH
modifications: also: branched tetramer: four RTY arms on the alpha and epsilon amines of two Lys, which are attached to the alpha and epsilon amines of a central Lys followed by Gly
notes: Synthetic branched tetramer; also called (H2N-Arg-Thr-Tyr-CO)4-Lys2Lys-Gly-OH; tetrameric tripeptide (H-L-Arg-L-Thr-L-Tyr-)4-Lys2-Lys-COOH
Q: Does B1 bind [1]?
A: Result: no binding
